Experimental data as given in EP4209511A1.
Changes are numbered by the printed parent chain.

T1: Human CD84 produced by mammalian cells (human) (UniProt Q9UIB8)
T1 sequence (looked up): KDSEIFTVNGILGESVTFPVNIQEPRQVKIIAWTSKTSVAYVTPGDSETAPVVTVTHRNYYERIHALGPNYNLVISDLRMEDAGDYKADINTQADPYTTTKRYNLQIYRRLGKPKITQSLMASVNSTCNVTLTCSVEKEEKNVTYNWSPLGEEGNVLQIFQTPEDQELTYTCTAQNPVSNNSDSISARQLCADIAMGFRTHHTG

T2: human CD84 on cells (human) (UniProt Q9UIB8)
T2 sequence (looked up): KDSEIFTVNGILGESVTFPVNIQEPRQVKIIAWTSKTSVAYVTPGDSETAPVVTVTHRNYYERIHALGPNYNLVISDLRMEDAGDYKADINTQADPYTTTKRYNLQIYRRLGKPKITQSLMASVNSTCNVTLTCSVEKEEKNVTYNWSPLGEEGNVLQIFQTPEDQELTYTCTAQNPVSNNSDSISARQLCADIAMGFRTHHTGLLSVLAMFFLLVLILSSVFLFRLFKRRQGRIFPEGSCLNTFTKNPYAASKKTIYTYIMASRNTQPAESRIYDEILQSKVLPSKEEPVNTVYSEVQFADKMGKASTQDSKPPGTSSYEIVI

B1: R3-G7 (scFv)
scFv: QVQLVESGGGVVQPGRSLRLSCTASGFTFSSYPMHWVRQAPGKGLEWVAAISYHGRNKFYADSVKGRFTISRDDLRSTLYLQMNNLKADDTAVYSCARDRDATPGGTGVGNHGMAVWGQGTTVTVSSGGGGSGGGGSGGGGSGGGGASEIVLTQSPLSLPVTPGEPASISCKSSQSLLHSSGYNYLDWYLQKPGQSPQLLIHMGSNRASGVPARFSGSGSGTDFTLRISRVEAEDVGVYYCMQGLQTPPTFGGGTKLEIK
B2: R3-H3 (scFv)
scFv: EVQLVESGGGLVQPGGSLRLSCAASGFTFSDNAMSWVRQAPGKGLEWVSAISGTGRTTYYADSVKGRFTISRDNSKNTLYLQMNSLRAEDTAVYYCAKWDCSDGRCYWAYWGQGTLVTVSSGGGGSGGGGSGGGGSGGGGASEIVLTQSPLSLPVTLGQPASISCRSSQSLVYSDGDTYLNWFQQRPGQSPRRLIYKVSNRDSGVPDRFSGSGSGTDFTLKISRVEAEDVGVYYCMQGTHWPPNTFGQGTRLEIK
B3: 152-1D5 (antibody, mouse IgG1, V domains shown)
VH: QVQLQQPGAEVVQPGTSVKLSCKASGYNFTNYWINWVKLRPGQGLEWIGDIYPVSGTTNYNEKFKRKATLTVDTSSSTGNMQLSSLASEDSALYYCASGTGRFAYWGQGTLVTVSA
VL: DIVLTQSPASLAVSLGQRATISCRASQSVSTSSYSYMHWYQQKPGQPPKLLIKFASNLESGVPARFSGSGSGTDFTLNIHPVEEEDTATYYCQHSWEIPYTFGGGTKLEIK
B4: GYCD84.1-226 (antibody, mouse IgG1, V domains shown)
VH: QVQLQQPGAELVKPGTSVKLSCKASGYNFTRYWINWVKLRPGQGLEWIGDIYPGSGSTNYNEKFKSKATLTVDTSSSTAYMQLSRLASEDSALYYCARDTTIAYWGQGTLVTVSA
VL: B3 VL with A9T, S30T, S33R
B5: GYCD84.1-108 (antibody, mouse IgG2a, V domains shown)
VH: QVQLQQSGAELVRPGTSVKMSCKAAGYTFTNYWIGWVRQRPGHGLEWIGDIYPGGGYTNYNENFKGKATLTADTSSSTAYMQLSSLTSEDSAIYYCARSTTYYSSYWCFDVWGPGTTVTVSS
VL: DIVMTQSPSSLSVSAGEKVTMSCKSSQSLLNSGNQANYLAWYQQKPGQPPKLLINGASTRESGVPDRFTGSGSGTDFTLTISSVQAEDLAVYYCQNDHSYPFTFGSGTKLEIK
B6: GYCD84.3.89 (antibody, mouse IgG1, V domains shown)
VH: EVKLLESGGGLVQPGGSLKLSCAASGFGFSRSWMSWVRQAPGKGLEWIGEINPDSSTINYTPSLKDKFIISRDNAKNTLFLQMSKVRSEDTALYYCATFYDGYSIYWYFDVWGAGTTVTVSS
VL: DVLMTQTPLSLPVSLGDQASISCRSSQSIVHSNGDTYLEWYLQKPGQSPKLLIYKVSNRFSGVPDRFSGSGSGTDFTLKISRVEAEDLGVYYCFQGSHVPRTFGGGTKLEIK
B7: GYCD84.3.298 (antibody, mouse IgG1, V domains shown)
VH: QVTLKESGPGILQPSQTLSLTCSFSGFSLSTSGMGVGWIRQPSGKGLEWLAHIWWDDVKRYNPALRSRLTISKDTSSSQVFLNIASVDTADTATYYCTRIAVTYFFDFWGQGTTLTVSS
VL: DIQMTQSPASLSASVGETVTITCRASENIFSSFAWYQQKRGRSPQLLVYNARTLAEGVPSRFSGSGSGTQFSLKINSLQPEDFGTYFCQHHYASPFTFGSGTELGVK
B8: GYCD84.2.27 (antibody, mouse IgG1, V domains shown)
VH: QVTLKESGPGILQPSQTLSLTCSFSGFSLTTSGMGVGWIRQPSGKGLEWLAHIWWDDVKRYNPALKSRLTISKDTSSSQVFLKIASVDTADTASYYCARMSTSYYFDYWGQGTTLTVSS
VL: DIVMTQSHKFMSTSLGDRVSISCKASQSLFTSVAWYQQKPGQSPKLLIYSASYRYTGVPDRFTGSGSGTDFTFTISSVQAEDLAVYYCQQHYSSPFTFGSGTKLGIK
B9: GYCD84.2.32 (antibody, mouse IgG1, V domains shown)
VH: EVQLQQSGPELEKPGASVKISCKASGYSFTGYNMNWVKQSNGKSLEWIGNIDPYYGGTNYNQKFKGKATLTVDKSSSTAYMQLKSLTSEDSAVYYCARGLLSGSFPYWGQGTLVTVSA
VL: DIQMTQSPASLSASVGETVTITCRASENIYSYLAWYQQKQGKSPQLLVYNAKTLAEGVPSRFSGSGSGTQFSLKINSLHPEDFGSYFCQHHYGSPLTFGAGTKLEVK
B10: GYCD84.1-7 (antibody, mouse IgG1, V domains shown)
VH: B8 VH with T30S, S94T, S101R
VL: B9 VL with Y30F, Y32S, K39R, H79Q, F87Y, G93A, S94T, L96F, A100S, V106I
B11: GYCD84.5.171 (antibody, mouse IgG1, V domains shown)
VH: EVQLVESGGGLVQPKGSLKLACAASGFTFNIYAMNWVRQAPGKGLEWVARIRSKSNNYARFYADSVKDRFTISRDDSQSMLYLQMNNLKTEDTAMYYCVRPLRSYFSMDYWGQGTSVTVSS
VL: SIVMTQSPKSMSMSVGERVTLSCKASENVDTYVSWYQQKPEQSPKLLIYGASNRYTGVPDRFTGSGSATDFTLTISSVKAEDLADYHCGQTYSYPWTFGGGTKLEIK
B12: GYCD84.1-97 (antibody, mouse IgG2a, V domains shown)
VH: QVQLQQPGAELVKPGTSVKLSCKASGYNFTSYWINWVKLRPGQGLEWIGDIYLGSGSTNYNEKFKSKATLTVDTSSSSAYMQLSSLVSEDSALYYCATSGGYLGYWGQGTTLTVSS
VL: B3 VL
B13: GYCD84.1-207 (antibody, mouse IgG1, V domains shown)
VH: EVKLLESGGGLVQPGGSLKLSCAASGFDFSRYWMSWVRQAPGKGLEWIGEINPDSSTINYTPSLKDKFIISRDNAKNTLYLQMSKVRSEDTALYYCARPGPTVVATYWYFDVWGAGTTVTVSS
VL: B6 VL with D35N, N58S, G71A

Target: T1, Human CD84 produced by mammalian cells (human)
Experiment: monoclonal phage ELISA, plate coated with CD84 antigen, anti-phage HRP antibody

| ELISA signal on antigen (Ag), read at 450 nm (absorbance at 450 nm) | Binder |
| --- | --- |
| 2.4 | B1 |
| 0.696 | B2 |

Target: T2, human CD84 on cells (human)
Experiment: flow cytometry, hybridoma supernatant at equal antibody concentration, monocytes

| Monocyte binding | Binder |
| --- | --- |
| 72% | B3 |
| 76.1% | B4 |
| 41.3% | B5 |
| 72.7% | B6 |
| 53.9% | B7 |
| 77.5% | B8 |
| 78.2% | B9 |
| 64.4% | B10 |
| 64.8% | B11 |

Target: T2, human CD84 on cells (human)
Experiment: flow cytometry, hybridoma supernatant at equal antibody concentration, Raji cells

| Raji binding | Binder |
| --- | --- |
| 97.6% | B3 |
| 99.9% | B4 |
| 30.3% | B5 |
| 99.1% | B6 |
| 45.9% | B7 |
| 97.5% | B8 |
| 99.5% | B9 |
| 91.4% | B10 |
| 73.9% | B11 |

Target: T2, human CD84 on cells (human)
Experiment: flow cytometry, hybridoma supernatant at equal antibody concentration, Ramos cells

| Ramos binding | Binder |
| --- | --- |
| 73.4% | B3 |
| 80.2% | B4 |
| 31.2% | B5 |
| 91.3% | B6 |
| 28.3% | B7 |
| 66.3% | B8 |
| 78.6% | B9 |
| 59% | B10 |
| 35.1% | B11 |

Target: T2, human CD84 on cells (human)
Experiment: flow cytometry, hybridoma supernatant at equal antibody concentration, lymphocytes

| Lymphocyte binding | Binder |
| --- | --- |
| 24.4% | B3 |
| 28.7% | B4 |
| 13.6% | B5 |
| 24.9% | B6 |
| 16.6% | B7 |
| 25.4% | B8 |
| 28.7% | B9 |
| 19% | B10 |
| 26.8% | B11 |

Target: T2, human CD84 on cells (human)
Experiment: flow cytometry, hybridoma supernatant at equal antibody concentration, 300.19-CD84+ cells

| 300.19-CD84 binding | Binder |
| --- | --- |
| 92.5% | B3 |
| 97.7% | B12 |
| 98.1% | B4 |
| 93.9% | B5 |
| 83% | B6 |
| 94.2% | B13 |
| 93.5% | B7 |
| 96.3% | B8 |
| 99% | B9 |
| 92.6% | B10 |
| 93.2% | B11 |
